Source: patent CN112500487A (HUADAO SHANGHAI BIOMEDICAL CO LTD, dated 2021)

Molecular target: T1, Human IL-3Rα/CD123蛋白 (human, UniProt P26951 19-305, limits assumed)
T1 construct: Soluble antigen in the mobile phase of the SPR run
T1 sequence (looked up): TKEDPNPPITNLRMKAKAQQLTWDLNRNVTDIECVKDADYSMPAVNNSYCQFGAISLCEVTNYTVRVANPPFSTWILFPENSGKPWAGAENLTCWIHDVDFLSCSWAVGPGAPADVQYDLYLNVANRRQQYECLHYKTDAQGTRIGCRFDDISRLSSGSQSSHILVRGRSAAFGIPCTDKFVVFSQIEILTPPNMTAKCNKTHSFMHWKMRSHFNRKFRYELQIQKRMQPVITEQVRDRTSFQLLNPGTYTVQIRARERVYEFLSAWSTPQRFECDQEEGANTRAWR
Test: SPR (Biacore), antibody immobilised on chip, antigen in mobile phase

B1: CD123-89 VHH-mIgG2a Fc抗体 (anti-CD123 VHH CD123-89 with mouse Fc tag) (Fc fusion)
chain: EVQLVESGGDSVQTGGSLRLSCLASGYIGSGYCLAWFRQAPGKERKKVANIVIGVGRPYYADSVKGRFTISQDNAKNTLYLQMNSLKPEDTAMYYCAASKFGSWSCGDYNYWGQGTQVTVSS
notes: Expressed in 293E cells from C-4pCP.Stuffer VHH-mCg2a-FC and purified on MabSelect SuRe; also called 抗CD123 VHH抗体CD123-89; 重组CD123-89抗体; not shown: mouse IgG2a Fc tag from vector C-4pCP.Stuffer VHH-mCg2a-FC
- Kd: 0.48 nM
- koff: 0.000174 s⁻¹
- kon: 362000 M⁻¹ s⁻¹
